Laboratory results published in US20240116985A1 (published 2024).
Starred links: 1 amine or outer side, 2 acyl side, 3 side chain; linkers in the order of their positions; H or OH if unused. Positions of bridges follow the written chain, without caps; N, C: chain ends. Non-standard residues stand in square brackets, D forms with d. Primed or numbered codes have the meaning given here. PyrS2″ = (S)-3-amino-1-((pent-4-en-1-yloxy)carbonyl)pyrrolidine-3-carboxylic acid (stapling residue), C=CCCCOC(=O)N1CC[C@@](N[*:1])(C(=O)[*:2])C1; B5(16) = 2-amino-2-(pent-4-en-1-yl)hept-6-enoic acid = 2,2-bis(4-pentenyl)glycine (stitching residue), C=CCCCC(CCCC=C)(N[*:1])C(=O)[*:2]; B5(4) = 2,2-bis(4-pentenyl)glycine = 2-amino-2-(pent-4-en-1-yl)hept-6-enoic acid (stitching residue), C=CCCCC(CCCC=C)(N[*:1])C(=O)[*:2]; PyrS2 = (S)-3-amino-1-((pent-4-en-1-yloxy)carbonyl)pyrrolidine-3-carboxylic acid, C=CCCCOC(=O)N1CC[C@@](N[*:1])(C(=O)[*:2])C1; Phe(2-Cl) = N[C@@H](Cc1ccccc1Cl)C(=O)O; Bta = N[C@@H](Cc1csc2ccccc12)C(=O)O; αAllylPro = C=CC[C@@]1(C(=O)O)CCCN1

T1: beta-catenin (Homo sapiens (Human), UniProt P35222 1-781)
T1 construct: The FP protocol says full-length beta-Catenin (Uniprot ID P35222); also called full-length beta-Catenin; bCat
T1 sequence: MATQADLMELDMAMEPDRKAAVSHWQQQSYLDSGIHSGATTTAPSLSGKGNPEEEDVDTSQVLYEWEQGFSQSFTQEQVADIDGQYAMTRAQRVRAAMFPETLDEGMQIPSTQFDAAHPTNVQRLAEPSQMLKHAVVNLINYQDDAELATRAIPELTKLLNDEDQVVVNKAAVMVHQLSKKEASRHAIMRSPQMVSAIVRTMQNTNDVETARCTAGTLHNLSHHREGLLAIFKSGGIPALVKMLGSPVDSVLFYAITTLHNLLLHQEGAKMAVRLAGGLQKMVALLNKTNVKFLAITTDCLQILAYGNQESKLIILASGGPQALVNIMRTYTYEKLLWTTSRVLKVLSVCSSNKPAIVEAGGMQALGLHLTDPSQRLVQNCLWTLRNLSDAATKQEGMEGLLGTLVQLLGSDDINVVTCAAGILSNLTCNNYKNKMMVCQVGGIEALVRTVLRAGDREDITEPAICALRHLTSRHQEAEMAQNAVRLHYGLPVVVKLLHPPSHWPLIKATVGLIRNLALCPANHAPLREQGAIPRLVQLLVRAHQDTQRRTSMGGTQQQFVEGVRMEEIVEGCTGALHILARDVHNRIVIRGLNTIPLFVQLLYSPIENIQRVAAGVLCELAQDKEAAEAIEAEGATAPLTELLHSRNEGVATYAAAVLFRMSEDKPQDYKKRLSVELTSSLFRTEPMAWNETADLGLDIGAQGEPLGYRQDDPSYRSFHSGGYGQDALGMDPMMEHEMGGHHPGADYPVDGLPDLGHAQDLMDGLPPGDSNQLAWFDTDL

T2: full-length beta-Catenin (Uniprot ID P35222) (Homo sapiens (Human), UniProt P35222 1-781)
T2 construct: also called bCat; B-Catenin
T2 sequence: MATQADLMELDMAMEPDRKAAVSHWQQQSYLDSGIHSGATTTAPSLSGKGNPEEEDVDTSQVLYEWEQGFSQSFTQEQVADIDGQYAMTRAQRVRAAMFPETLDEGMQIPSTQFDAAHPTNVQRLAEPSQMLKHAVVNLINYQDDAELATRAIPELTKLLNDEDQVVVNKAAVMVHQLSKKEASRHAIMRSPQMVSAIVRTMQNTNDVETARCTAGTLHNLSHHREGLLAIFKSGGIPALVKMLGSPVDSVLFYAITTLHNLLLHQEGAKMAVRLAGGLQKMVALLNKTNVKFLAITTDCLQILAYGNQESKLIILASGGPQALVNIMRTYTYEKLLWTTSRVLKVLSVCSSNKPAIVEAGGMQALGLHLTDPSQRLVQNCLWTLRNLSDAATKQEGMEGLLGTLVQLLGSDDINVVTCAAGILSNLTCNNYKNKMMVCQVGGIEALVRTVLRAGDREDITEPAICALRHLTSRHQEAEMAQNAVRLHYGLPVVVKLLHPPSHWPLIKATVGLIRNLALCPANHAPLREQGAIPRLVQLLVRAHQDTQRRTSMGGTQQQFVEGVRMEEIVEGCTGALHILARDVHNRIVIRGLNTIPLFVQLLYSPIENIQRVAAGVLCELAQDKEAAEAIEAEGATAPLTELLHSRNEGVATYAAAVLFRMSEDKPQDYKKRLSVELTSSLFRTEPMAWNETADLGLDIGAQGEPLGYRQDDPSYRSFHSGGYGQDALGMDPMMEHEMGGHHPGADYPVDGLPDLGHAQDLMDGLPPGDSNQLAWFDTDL

T3: full-length beta-Catenin (Uniprot ID P35222) (Homo sapiens (Human), UniProt P35222 1-781)
T3 construct: Tags are not described; Also used here as the target of the DLD1 TCF reporter read-out (endogenous beta-catenin in DLD1 cells); also called bCat; B-Catenin
T3 sequence: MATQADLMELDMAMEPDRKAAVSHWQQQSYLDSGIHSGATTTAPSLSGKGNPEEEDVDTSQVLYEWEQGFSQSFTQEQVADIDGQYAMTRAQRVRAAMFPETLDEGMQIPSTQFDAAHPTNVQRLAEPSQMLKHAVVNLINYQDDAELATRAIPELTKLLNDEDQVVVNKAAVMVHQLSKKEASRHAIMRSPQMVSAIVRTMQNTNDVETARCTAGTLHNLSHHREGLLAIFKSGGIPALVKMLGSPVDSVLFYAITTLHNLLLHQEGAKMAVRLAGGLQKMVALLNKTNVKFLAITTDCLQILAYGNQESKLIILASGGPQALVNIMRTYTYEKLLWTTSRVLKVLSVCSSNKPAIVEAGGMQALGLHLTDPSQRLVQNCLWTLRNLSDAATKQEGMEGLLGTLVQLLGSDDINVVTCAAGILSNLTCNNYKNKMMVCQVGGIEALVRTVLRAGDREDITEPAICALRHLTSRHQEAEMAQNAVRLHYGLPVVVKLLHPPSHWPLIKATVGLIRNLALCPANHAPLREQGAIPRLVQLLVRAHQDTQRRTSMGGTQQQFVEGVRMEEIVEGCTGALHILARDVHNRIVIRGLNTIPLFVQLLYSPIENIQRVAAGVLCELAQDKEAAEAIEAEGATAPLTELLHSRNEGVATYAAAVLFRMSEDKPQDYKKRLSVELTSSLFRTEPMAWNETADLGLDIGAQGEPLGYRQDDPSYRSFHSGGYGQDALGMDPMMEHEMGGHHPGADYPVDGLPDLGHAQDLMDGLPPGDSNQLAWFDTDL

T4: B-cat-Halo (UniProt P35222 1-781)
T4 sequence (looked up): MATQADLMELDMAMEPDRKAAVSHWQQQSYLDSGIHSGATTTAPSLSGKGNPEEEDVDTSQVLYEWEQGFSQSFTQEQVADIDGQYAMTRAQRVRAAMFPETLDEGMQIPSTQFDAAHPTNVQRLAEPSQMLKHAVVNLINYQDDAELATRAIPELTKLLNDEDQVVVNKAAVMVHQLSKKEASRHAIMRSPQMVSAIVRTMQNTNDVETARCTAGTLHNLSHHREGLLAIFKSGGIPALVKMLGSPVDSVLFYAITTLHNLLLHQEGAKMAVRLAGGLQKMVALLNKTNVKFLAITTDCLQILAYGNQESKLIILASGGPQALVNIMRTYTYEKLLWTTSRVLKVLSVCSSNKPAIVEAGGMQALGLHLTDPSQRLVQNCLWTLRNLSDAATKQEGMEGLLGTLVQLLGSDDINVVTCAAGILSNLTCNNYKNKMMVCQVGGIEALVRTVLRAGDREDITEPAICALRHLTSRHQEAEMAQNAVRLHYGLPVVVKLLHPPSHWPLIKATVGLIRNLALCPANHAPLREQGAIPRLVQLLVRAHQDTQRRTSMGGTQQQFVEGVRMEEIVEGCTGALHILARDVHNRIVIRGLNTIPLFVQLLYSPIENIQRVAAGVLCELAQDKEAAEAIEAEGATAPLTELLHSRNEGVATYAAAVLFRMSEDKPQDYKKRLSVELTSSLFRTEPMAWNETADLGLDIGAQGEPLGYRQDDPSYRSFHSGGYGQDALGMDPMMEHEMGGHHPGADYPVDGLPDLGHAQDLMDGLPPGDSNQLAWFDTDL


Tests used:
beta-catenin = biological target: T1, beta-catenin; assay: fluorescence polarization competition; full-length beta-catenin with 5FAM-TCF4(10-53) probe as competitor
How it was run: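 Data fitted to 1:1 binding model with hill slope from duplicate reads taken after 60 minutes at 20° C. in the dark.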

[1] = biological target: T2, full-length beta-Catenin (Uniprot ID …); assay: fluorescence polarization competition; peptide titrated against 10 nM full-length beta-catenin + 10 nM 5FAM-TCF4(10-53)
Protocol: (§1) The plate was incubated protected from light for 60 minutes at 20° C. prior to read. Reads were performed on a CLARIOstar plate reader (BMG Labtech) in duplicate, and data were fitted to a 1:1 binding model with hill slope using an in-house script. All provided concentrations are final concentrations.

[2] = biological target: T3, full-length beta-Catenin (Uniprot ID …); assay: fluorescence polarization competition; full-length beta-catenin with 5FAM-TCF4(10-53) probe, peptide titrated
Protocol: as §1

B-cat-Halo = biological target: T4, B-cat-Halo; assay: cell-based or functional assay

| EC50 (beta-catenin) [µM] | IC50 [1] [µM] | Binder | further results |
| --- | --- | --- | --- |
| 0.389 | – | Ac-[αAllylPro]DS[B5(4)]DDAAFL[PyrS2][Phe(2-Cl)][Bta]L-NH2 (staple 1-4, 4-11, stapled peptide) [I-1423] | – |
| – | 5 | XDAXDDAAAVXFWQ (not fully specified; N-terminal Ac; PL3 at 1, B5 at 4, S8 at 11 (staples 1-4 and 4-11 by olefin metathesis); C-terminal NH2, Stapled peptide; also called Ac-PL3-Asp-Ala-B5-Asp-Asp-Ala-Ala-Ala-Val-S8-Phe-Trp-Gln-NH2) [I-354] | – |
| – | 5 | XDAXDDAAFVXAWQ (not fully specified; N-terminal Ac; PL3 at 1, B5 at 4, S8 at 11 (staples 1-4 and 4-11 by olefin metathesis); C-terminal NH2, Stapled peptide; also called Ac-PL3-Asp-Ala-B5-Asp-Asp-Ala-Ala-Phe-Val-S8-Ala-Trp-Gln-NH2) [I-356] | – |

Further lines, the binder ahead of its results:

| Binder | EC50 (beta-catenin) [µM] | IC50 [1] [µM] | further results |
| --- | --- | --- | --- |
| Ac-[αAllylPro]DT[B5(4)]DDAAFL[PyrS2][Phe(2-Cl)][Bta]L-NH2 (staple 1-4, 4-11, stapled peptide) [I-1424] | 0.235 | – | – |
| Ac-[αAllylPro]DL[B5(4)]DDAAFL[PyrS2″][Phe(2-Cl)][Bta]L-NH2 (staple 1-4, 4-11; also: staple isomer composition of later HPLC peak, stapled peptide) [I-1419] | 0.152 | – | – |
| XDAXDDAAFVXAWQ (not fully specified; N-terminal Ac; PL3 at 1, B5 at 4, S8 at 11 (staples 1-4 and 4-11 by olefin metathesis); C-terminal NH2, Stapled peptide; also called Ac-PL3-Asp-Ala-B5-Asp-Asp-Ala-Ala-Phe-Val-S8-Ala-Trp-Gln-NH2) [I-355] | – | 5 | – |
| XDAXDDAAFVXFAQ (not fully specified; N-terminal Ac; PL3 at 1, B5 at 4, S8 at 11 (staples 1-4 and 4-11 by olefin metathesis); C-terminal NH2, Stapled peptide; also called Ac-PL3-Asp-Ala-B5-Asp-Asp-Ala-Ala-Phe-Val-S8-Phe-Ala-Gln-NH2) [I-357] | – | 5 | – |
| Ac-[αAllylPro]DF[B5(16)]DDAAFN[PyrS2″][Phe(2-Cl)][Bta]Q-NH2 (staple 1-4, 4-11, also called Ac-PL3-Asp-Phe-B5-Asp-Asp-Ala-Ala-Phe-Asn-PyrS2-2C1F-BztA-Gln-NH2) [I-1041] | – | – | IC50 [2]: 0.008 µM; NanoBRET Abs IC50 (B-cat-Halo): > 20 µM |
| Ac-[αAllylPro]DF[B5(16)]DDAAFS[PyrS2″][Phe(2-Cl)][Bta]Q-NH2 (staple 1-4, 4-11, also called Ac-PL3-Asp-Phe-B5-Asp-Asp-Ala-Ala-Phe-Ser-PyrS2-2C1F-BztA-Gln-NH2) [I-1045] | – | – | IC50 [2]: 0.005 µM; NanoBRET Abs IC50 (B-cat-Halo): 23.9 µM |
